Source: patent publication US20150010572A1 (SAMSUNG ELECTRONICS, published 2015)
Positions count from the first letter of the chain named.

T1: Ang-2 (R&D systems; 623-AN-025/CF) (human, UniProt O15123 19-496)
T1 sequence: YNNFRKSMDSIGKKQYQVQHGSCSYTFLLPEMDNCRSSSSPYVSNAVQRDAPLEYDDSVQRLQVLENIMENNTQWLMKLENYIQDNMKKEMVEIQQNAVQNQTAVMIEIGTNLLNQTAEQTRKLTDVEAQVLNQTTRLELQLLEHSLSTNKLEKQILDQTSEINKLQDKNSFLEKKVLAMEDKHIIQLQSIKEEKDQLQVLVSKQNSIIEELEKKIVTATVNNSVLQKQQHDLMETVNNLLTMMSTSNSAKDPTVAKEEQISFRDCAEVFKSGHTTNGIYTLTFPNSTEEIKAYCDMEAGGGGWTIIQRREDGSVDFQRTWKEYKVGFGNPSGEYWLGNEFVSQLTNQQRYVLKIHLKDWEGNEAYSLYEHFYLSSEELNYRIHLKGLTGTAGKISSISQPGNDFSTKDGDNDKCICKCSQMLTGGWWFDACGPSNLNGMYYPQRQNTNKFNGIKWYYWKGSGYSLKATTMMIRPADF

T2: recombinant hAng-2 (C-His, R&D Systems) (human, UniProt O15123 19-496)
T2 construct: Bought protein; also called human Ang-2 protein; not shown: C-terminal His tag
T2 sequence: T1 sequence

B1: SAIT-Ang-2-AB-m8B3 (antibody, V domains shown)
VH: DVQLQESGPGLVKPSQSLSLSCTVTGYSIASDYAWNWIRQFPGNKVEWMGYINYRGNTDYNPSLKSRSSINRDTSKNQFFLQLNSVTTGDTATYYCARGNFEGAMDYWGQGTSVTVSS
VL: TIVMTQTPKFLLVSAGDRITITCKASQSVSNDVAWYQQKPGQSPKLLIYYASNRYPGVPDRFTGSGYGTDFTFTISTVQAEDLAVYFCQQDYTSPWTFGGGTELEIK
notes: also called KCLRF-BP-00293
B2: SAIT-Ang-2-AB-m2E7 (antibody, V domains shown)
VH: DLQLQESGPGLVKPSQSLSLTCTVTGYSITSDYAWNWIRQFPGNKLEWMGYISYSGSTSYNPSLKSRISITRDTSKNQFFLQLNSLTTEDTATYYCARGDYGNYVGPMDYWGQGTSVTVSS
VL: B1 VL with T1S, I19V, Q37R, P56T, T93S, W96L, G100A, G101R, E103K, I106L
notes: also called KCLRF-BP-00294

Tests used:
[1] = biological target: T1, Ang-2 (R&D systems; 623-AN-025/CF); experiment: cell-based or functional assay
[2] = biological target: mutant Ang-2 protein, A449 substituted with alanine (FLAG-tagged at N-terminal) (human) (UniProt O15123); experiment: ELISA, antibody coated, 250 ng FLAG-tagged mutant Ang-2, anti-FLAG-HRP, OD450 relative to native Ang-2
[3] = biological target: T2, recombinant hAng-2 (C-His, R&D Systems); experiment: SPR, BIAcore T100; hAng-2 (C-His) captured by anti-His antibody on CM5 chip, antibody flowed
Experimental: The binding affinities of the above 3 kinds of antibodies to human Ang-2 protein were measured by a SPR technology using a BIAcore T100 (GE Healthcare). The SPR technology uses refractive index change of light which passes a sensor chip according to the state of materials coated onto the sensor chip, and if an antigen or an antibody is flowed onto a chip coated with the antigen or antibody, it causes changes in refractive index due to their binding and Kd values are thus calculated from the measured values.
First, anti-His antibody was immobilized on a CM5 sensor chip (GE healthcare) up to 8,000 RU levels using a pH 5.0 acetate solution and an amine coupling kit (GE Healthcare). A recombinant hAng-2 (C-His, R&D Systems) protein was flowed onto the chip to be captured at 100 to 200 RU levels.

| Binder | Ang-2-depedent Cell Adhesion Degree (%) [1] [%] | % at RBD binding (mutant Ang-2 against native Ang-2) [2] [%] | Kd [3] [nM] |
| --- | --- | --- | --- |
| B1 | 23.6 | 88.5 | 0.0086 |
| B2 | 28.1 | 90.9 | 30.6 |
